The source of these data is publication PMC11717252, “Biophysical and biochemical evidence for the role of acetate kinases (AckAs) in an acetogenic pathway in pathogenic spirochetes” (PLOS ONE, 2025).

Data set [1] concerns the target T1, TV0924 (TREVI0001_0924; rTV0924; TvAckA) (Treponema vincentii, UniProt C8PR54).
T1 construct: gene ackA; homodimer, calculated dimer mass 104,820 g/mol
T1 sequence (C8PR54 1-449): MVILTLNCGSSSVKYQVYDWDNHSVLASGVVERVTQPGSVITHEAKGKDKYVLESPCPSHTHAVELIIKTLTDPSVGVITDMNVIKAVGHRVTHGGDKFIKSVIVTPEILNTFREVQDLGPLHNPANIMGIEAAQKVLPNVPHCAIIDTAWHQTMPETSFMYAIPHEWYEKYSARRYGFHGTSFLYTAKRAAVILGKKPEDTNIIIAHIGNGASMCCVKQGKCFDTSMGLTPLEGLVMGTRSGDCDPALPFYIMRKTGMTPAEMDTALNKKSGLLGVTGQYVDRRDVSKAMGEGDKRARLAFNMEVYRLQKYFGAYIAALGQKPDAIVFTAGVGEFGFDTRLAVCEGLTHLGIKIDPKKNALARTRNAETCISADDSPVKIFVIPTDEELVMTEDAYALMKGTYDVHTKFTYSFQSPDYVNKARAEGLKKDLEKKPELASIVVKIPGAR
As to the kind of experiment: X-ray crystal structure, […] Å. The conditions noted are these: active site; co-crystallised with 5 mM ADP and 5 mM MgCl2, pH 5.5; modelled as AMP, may be hydrolysed ADP or ADP with disordered beta-phosphate. The format is binding.

Data set [2] addresses TV0924 (TREVI0001_0924), acetate kinase from Treponema vincentii (Treponema vincentii). Briefly: mass photometry; TwoMP (Refeyn), sample diluted in PBS, ca. 10 nM in the droplet, 60-s movie; self-association.
Data set [3] shares this target. Briefly: AUC; sedimentation velocity, 20°C, Buffer A (20 mM HEPES, 0.1 M NaCl, pH 7.5, 2 mM n-octyl-β-D-glucopyranoside), 50,000 rpm, absorbance at 280 nm, c(s) analysis in SEDFIT; self-association.
Data set [4] concerns the molecule itself. Described as above.
Data set [5] deals with the molecule itself. Briefly: mass photometry; TwoMP (Refeyn), sample diluted in PBS, ca. 10 nM in the droplet, 60-s movie; self-association.
Substrate in data set [6]: CC(=O)OP(=O)(O)O
Briefly: purified protein. The conditions noted are these: ATP-forming direction, ADP up to 5 mM, 20 mM MgCl2, 100 mM HEPES pH 7.5, 100 mM NaCl, 37 °C. It counts as biochemical, Treponema pallidum.

Substrate in data set [7]: Nc1ncnc2c1ncn2[C@@H]1O[C@H](COP(=O)(O)OP(=O)(O)O)[C@@H](O)[C@H]1O
As to the kind of experiment: purified protein. As to conditions: ATP-forming direction, acetyl phosphate up to 10 mM, 20 mM MgCl2, 100 mM HEPES pH 7.5, 100 mM NaCl, 37 °C. It counts as biochemical, Treponema pallidum.

Substrate in data set [8]: CC(=O)OP(=O)(O)O
Briefly: purified protein. It counts as biochemical, Treponema vincentii. The conditions noted are these: ATP-forming direction, ADP up to 5 mM, 20 mM MgCl2, 100 mM HEPES pH 7.5, 100 mM NaCl, 37 °C.

Substrate in data set [9]: Nc1ncnc2c1ncn2[C@@H]1O[C@H](COP(=O)(O)OP(=O)(O)O)[C@@H](O)[C@H]1O
As to the kind of experiment: purified protein. The format is biochemical, Treponema vincentii. The conditions noted are these: ATP-forming direction, acetyl phosphate up to 10 mM, 20 mM MgCl2, 100 mM HEPES pH 7.5, 100 mM NaCl, 37 °C.

Several values for one entry are separate records, joined by “and”; a condition that tells them apart may be missing. Equal entries are not always repeated.

In the case of `Nc1ncnc2c1ncn2[C@@H]1O[C@H](COP(=O)(O)O)[C@@H](O)[C@H]1O` [AMP], the “X-ray crystal structure, 1.30 Å” value in data set [1] was “The nucleotide was modeled as AMP, and we refer to this structure below as TV0924‧AMP”.

The term stoichiometry N denotes the number of molecules, sites or subunits per partner or assembly. For the molecule “TV0924 (TREVI0001_0924), acetate kinase from Treponema vincentii (enzyme)”, the stoichiometry N in data set [2] and in [3] was 2 in each case.

B1: TP0476, acetate kinase from Treponema pallidum (enzyme, UniProt O83489 1-448, looked up)
chain: MIILTLNCGSSSVKYQVYNWTERAVIAVGVVERVTQAGSVITHEVHGRENHVRESPCPTHTEAVQLIISTLTDAHVGVISDMSLIKAVGHRVLHAADRFVKSVVVTPDVLETFRSVQDLGPLHNPANIRGIEAAQAVIPSVPHCAIMDTAWHQTMPEASFMYAVPRQWYEEYAVRRYGFHGTSFLYTAKRASVILKKRAEDTNIIIAHIGNGASMCCVKNGVSFDTSMGITPLEGLIMGTRCGDCDPALAFYIMRKTGMSVSDIDTTLNKQSGLLGITGKYVDRRDVCAAMKNGDALARLAFDMEVHRIRKYFGAYVAALGKQPDALVFTAGVGEMCCDVRAAACAGLEHLGIRLDARKNELARTRNAETEISTDDSPVRILVIPTDEELVMTEDTYALMQGTYDVHTRFTYSFQDPTYVNKARAAGLKRDLEKNPALATIVVPRLDT
notes: Acetate kinase TP0476 of Treponema pallidum, amino acid residues 1-448; The dominant species is a dimer; monomer, trimer, tetramer and aggregates were also seen; also called rTP0476; TpAckA
The Km is the substrate concentration at which the rate is half of its maximum. For orientation: kcat means the maximal rate divided by the concentration of active sites. A word on the kcat/Km: it is the turnover number divided by the Michaelis constant. Turning to B1, the “stoichiometry N” value in [4] is 2. Moreover, the “stoichiometry N” value in data set [5] was 3 and 4. Moreover, in the data set “purified protein [6]”, the Michaelis-Menten constant (Km) came out at 380 ± 19 µM, the turnover number (kcat) came out at 51.5 ± 0.8 s⁻¹ and the catalytic efficiency (kcat/Km) was determined as 137000 ± 11000 M⁻¹ s⁻¹. Besides, in “purified protein [7]”, the Km amounted to 650 ± 70 µM, the turnover number (kcat) turned out to be 63.3 ± 1.5 s⁻¹ and the kcat/Km worked out at 90000 ± 10000 M⁻¹ s⁻¹.

B2: TV0924 (TREVI0001_0924; rTV0924; TvAckA) (Treponema vincentii ATCC 35580) (protein)
chain: MVILTLNCGSSSVKYQVYDWDNHSVLASGVVERVTQPGSVITHEAKGKDKYVLESPCPSHTHAVELIIKTLTDPSVGVITDMNVIKAVGHRVTHGGDKFIKSVIVTPEILNTFREVQDLGPLHNPANIMGIEAAQKVLPNVPHCAIIDTAWHQTMPETSFMYAIPHEWYEKYSARRYGFHGTSFLYTAKRAAVILGKKPEDTNIIIAHIGNGASMCCVKQGKCFDTSMGLTPLEGLVMGTRSGDCDPALPFYIMRKTGMTPAEMDTALNKKSGLLGVTGQYVDRRDVSKAMGEGDKRARLAFNMEVYRLQKYFGAYIAALGQKPDAIVFTAGVGEFGFDTRLAVCEGLTHLGIKIDPKKNALARTRNAETCISADDSPVKIFVIPTDEELVMTEDAYALMKGTYDVHTKFTYSFQSPDYVNKARAEGLKKDLEKKPELASIVVKIPGAR
notes: homodimer, calculated dimer mass 104,820 g/mol
As for B2, in “purified protein [8]”, the Km was 320 ± 30 µM, the kcat was found to be 3900 ± 300 s⁻¹ and the kcat/Km worked out at 1.19e+07 ± 400000 M⁻¹ s⁻¹. Moreover, in “purified protein [9]”, the Km was 650 ± 30 µM, the catalytic constant (kcat) worked out at 4800 ± 400 s⁻¹ and the kcat/Km is 7.5e+06 ± 400000 M⁻¹ s⁻¹.
